Data as given in article doi:10.1101/2023.02.13.525685.

Columns and labels:
[1] = target: RjoGlgAb (GT4 glycosyltransferase GlgAb from Rhodococcus jostii RHA1) (Rhodococcus jostii RHA1); experiment: SEC
[2] = target: RjoGlgAc (GT4 glycosyltransferase GlgAc from Rhodococcus jostii RHA1) (Rhodococcus jostii RHA1); experiment: SEC

Substance | stoichiometry N [1] | stoichiometry N [2]
RjoGlgAb (GT4 glycosyltransferase GlgAb from Rhodococcus jostii RHA1) (enzyme) | > 15 subunits | 
RjoGlgAc (GT4 glycosyltransferase GlgAc from Rhodococcus jostii RHA1) (enzyme) |  | 2
